How the values were obtained:
[1] = molecular target: Feline_OSMR_hlgG1_Fc (feline); assay: SPR Biacore, OSMR on chip
[2] = molecular target: Canine_OSMR_hlgG1_Fc (canine); assay: SPR Biacore, OSMR on chip
[3] = molecular target: Feline_OSMR_hlgG1_Fc (feline); assay: indirect ELISA, fOSMR coated; OD ratio to antibody expression control
[4] = molecular target: Feline_OSMR_hlgG1_Fc (feline); assay: SPR Biacore
[5] = molecular target: Canine_OSMR_hlgG1_Fc (canine); assay: SPR Biacore

Sequence of Canine_OSMR_hlgG1_Fc (canine) (chain, as listed by the source limits assumed, form in doubt): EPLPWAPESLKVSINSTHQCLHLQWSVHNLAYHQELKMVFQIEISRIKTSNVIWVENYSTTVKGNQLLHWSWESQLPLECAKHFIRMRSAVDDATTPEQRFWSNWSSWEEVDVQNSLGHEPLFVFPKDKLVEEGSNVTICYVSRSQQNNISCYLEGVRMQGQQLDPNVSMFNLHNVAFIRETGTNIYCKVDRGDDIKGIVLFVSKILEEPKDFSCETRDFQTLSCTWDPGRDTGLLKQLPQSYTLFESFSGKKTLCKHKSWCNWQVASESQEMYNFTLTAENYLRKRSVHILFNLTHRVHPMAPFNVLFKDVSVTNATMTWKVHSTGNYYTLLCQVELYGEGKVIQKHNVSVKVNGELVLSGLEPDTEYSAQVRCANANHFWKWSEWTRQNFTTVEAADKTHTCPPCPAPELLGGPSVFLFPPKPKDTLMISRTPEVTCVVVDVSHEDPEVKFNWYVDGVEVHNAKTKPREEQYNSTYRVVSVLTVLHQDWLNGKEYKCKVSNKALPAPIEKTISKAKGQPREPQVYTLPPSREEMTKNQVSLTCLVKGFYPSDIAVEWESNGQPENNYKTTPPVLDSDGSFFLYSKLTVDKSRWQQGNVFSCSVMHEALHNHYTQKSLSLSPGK
Sequence of Feline_OSMR_hlgG1_Fc (feline) (chain, as listed by the source limits assumed, form in doubt): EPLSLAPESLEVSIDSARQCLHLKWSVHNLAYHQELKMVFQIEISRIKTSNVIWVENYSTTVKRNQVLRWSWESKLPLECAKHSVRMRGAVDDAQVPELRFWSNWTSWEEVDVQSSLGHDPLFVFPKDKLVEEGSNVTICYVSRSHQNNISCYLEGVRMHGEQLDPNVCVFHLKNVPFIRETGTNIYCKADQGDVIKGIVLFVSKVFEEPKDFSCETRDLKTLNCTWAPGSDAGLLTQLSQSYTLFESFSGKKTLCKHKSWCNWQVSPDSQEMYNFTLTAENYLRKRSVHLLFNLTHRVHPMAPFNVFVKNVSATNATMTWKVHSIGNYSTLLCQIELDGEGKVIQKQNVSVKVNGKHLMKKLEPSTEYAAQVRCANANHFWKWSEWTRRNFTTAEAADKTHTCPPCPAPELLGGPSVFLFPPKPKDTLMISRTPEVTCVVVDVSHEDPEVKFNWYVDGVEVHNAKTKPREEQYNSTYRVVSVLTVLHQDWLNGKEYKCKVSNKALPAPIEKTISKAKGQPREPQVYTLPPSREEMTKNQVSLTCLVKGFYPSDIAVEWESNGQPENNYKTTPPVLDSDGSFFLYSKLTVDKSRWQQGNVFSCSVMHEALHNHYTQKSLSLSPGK

| Kd [1] [nM] | koff [1] [s⁻¹] | kon [1] [M⁻¹ s⁻¹] | Kd [2] [nM] | koff [2] [s⁻¹] | kon [2] [M⁻¹ s⁻¹] | ELISA ratio [3] [OD ratio] | Kd [4] [nM] | koff [4] [s⁻¹] | kon [4] [M⁻¹ s⁻¹] | Kd [5] [nM] | koff [5] [s⁻¹] | kon [5] [M⁻¹ s⁻¹] | Binder |
| --- | --- | --- | --- | --- | --- | --- | --- | --- | --- | --- | --- | --- | --- |
| – | – | – | 14.2 | – | – | – | – | – | – | – | – | – | Mu_14C04 (antibody, V domains shown) VH: EVQLQESGAELVKPGASVKISCKASGYAFSNYWMNWMKQRPGKGLEWIGQIYPGHVNTNYNGNFKDKATLTADKSSSTAYMQLSSLTSEDSAVYFCARSADNSGFVLFAYWGQGTLVTVS VL: DIVLTQSPASLAVSLGQRATISCRASKSVSTSGYSYLHWYQQKPGQPPKLLIFLASNLESGVPARFSGSGSGTDFTLNIHPVEEEDAATYYCQHSRELPLTFGAGTKLELK |
| 6.65 | 0.000942 | 142000 | 12.8 | 0.00328 | 256000 | 1.61 | 9.08 | 0.00119 | 131000 | – | – | – | mouse: canine 02D09 chimera (antibody, V domains shown) VH: EVQLVESGGGLVKPGGSLTLSCAASGFTFSDYGMHWLRQAPEKGLEWVAYISSGSRAVFFADTVKGRFTISRDNAKNTLFLQMTSLRSDDTAMYYCARDRYDGRGFAYWGQGTLVTVSA VL: DIVLTQSPATLSVTPGDSVSLSCRASQSISNNLHWYQQTSHESPRLLITYASQSISGIPSRFSGSGSGTDFTLSINSVETEDFGMYFCQQSNSWPLTFGAGTKLELKR |
| 0.022 | 4.4e-07 | 20000 | 1.38 | 0.000222 | 161000 | 1.76 | 1.57 | 0.000346 | 220000 | 6.13 | 0.000302 | 49400 | mouse: canine 10F07 chimera (antibody, V domains shown) VH: DVKLVESGEGLVKPGGSLKLSCAASGFTFSSYAMSWVRQTPEKRLEWVTYISSGGDYFYYADTVKGRFTISRDNARNTLYLQMSSLKSEDTAMYYCTRDPITGTFAYWGQGTLVTVSA VL: DIQMTQTTSSLSASLGDRVTISCRASQDITNYLNWYQQKPDGTVKLLIYYTSTLHSGVPSRFSGSGSGTDFSLTISNLEQEDIATYFCQQGHMLPWTFGGGTKLEIKR |
| 1.59 | – | – | 2.03 | – | – | – | – | – | – | – | – | – | Mu_10F07 (antibody, V domains shown) VH: DVKLVESGEGLVKPGGSLKLSCAASGFTFSSYAMSWVRQTPEKRLEWVTYISSGGDYFYYADTVKGRFTISRDNARNTLYLQMSSLKSEDTAMYYCTRDPITGTFAYWGQGTLVTVSA VL: DIQMTQTTSSLSASLGDRVTISCRASQDITNYLNWYQQKPDGTVKLLIYYTSTLHSGVPSRFSGSGSGTDFSLTISNLEQEDIATYFCQQGHMLPWTFGGGTKLEIK |
| – | – | – | – | – | – | 0.375 | 1.43 | 0.000247 | 173000 | 1.69 | 6.76e-05 | 40100 | Mu_10F07_VH (SEQ ID NO: 39)_Y107A (antibody, V domains shown) VH: DVKLVESGEGLVKPGGSLKLSCAASGFTFSSYAMSWVRQTPEKRLEWVTYISSGGDYFYYADTVKGRFTISRDNARNTLYLQMSSLKSEDTAMYYCTRDPITGTFAAWGQGTLVTVSA VL: DIQMTQTTSSLSASLGDRVTISCRASQDITNYLNWYQQKPDGTVKLLIYYTSTLHSGVPSRFSGSGSGTDFSLTISNLEQEDIATYFCQQGHMLPWTFGGGTKLEIKR |
| – | – | – | – | – | – | 0.15 | 1.53 | 0.000274 | 179000 | 5.48 | 0.000222 | 40500 | Mu_10F07_VL (SEQ ID NO: 41)_L33A (antibody, V domains shown) VH: DVKLVESGEGLVKPGGSLKLSCAASGFTFSSYAMSWVRQTPEKRLEWVTYISSGGDYFYYADTVKGRFTISRDNARNTLYLQMSSLKSEDTAMYYCTRDPITGTFAYWGQGTLVTVSA VL: DIQMTQTTSSLSASLGDRVTISCRASQDITNYANWYQQKPDGTVKLLIYYTSTLHSGVPSRFSGSGSGTDFSLTISNLEQEDIATYFCQQGHMLPWTFGGGTKLEIKR |
| – | – | – | – | – | – | 0.298 | 1.63 | 0.000282 | 172000 | 5.32 | 0.000219 | 41200 | Mu_10F07_VL (SEQ ID NO: 41)_T97A (antibody, V domains shown) VH: DVKLVESGEGLVKPGGSLKLSCAASGFTFSSYAMSWVRQTPEKRLEWVTYISSGGDYFYYADTVKGRFTISRDNARNTLYLQMSSLKSEDTAMYYCTRDPITGTFAYWGQGTLVTVSA VL: DIQMTQTTSSLSASLGDRVTISCRASQDITNYLNWYQQKPDGTVKLLIYYTSTLHSGVPSRFSGSGSGTDFSLTISNLEQEDIATYFCQQGHMLPWAFGGGTKLEIKR |

Continued, binder first:

| Binder | Kd [1] [nM] | koff [1] [s⁻¹] | kon [1] [M⁻¹ s⁻¹] | Kd [2] [nM] | koff [2] [s⁻¹] | kon [2] [M⁻¹ s⁻¹] | ELISA ratio [3] [OD ratio] | Kd [4] [nM] | koff [4] [s⁻¹] | kon [4] [M⁻¹ s⁻¹] | Kd [5] [nM] | koff [5] [s⁻¹] | kon [5] [M⁻¹ s⁻¹] |
| --- | --- | --- | --- | --- | --- | --- | --- | --- | --- | --- | --- | --- | --- |
| mouse: canine 19F07 chimera (antibody, V domains shown) VH: EVKLVESEGGLVQPGSSMKLSCTASGFTFSDYYMAWVRQVPEKGLEWVANINYDGSSTYYLDSLKSRFIISRDNAKNILYLQMSSLKSEDTATYYCARGLTWDFDVWGTGTTVTVSS VL: DIVMTQSHKFMSPSVGDRVSITCKASQDVDTAVAWYQQKPGQSPKLLIYLASTRHTGVPDRFTGSGSGTDFTLTISNVQSEDLADYFCQQYSRFPLTFGAGTKLELKR | 44.5 | 0.002 | 45100 | 442 | 0.00084 | 1900 | 1.72 | 0.312 | 8.06e-05 | 242000 | 7.49 | 0.000775 | 88400 |
| Mu_19F07 (antibody, V domains shown) VH: EVKLVESEGGLVQPGSSMKLSCTASGFTFSDYYMAWVRQVPEKGLEWVANINYDGSSTYYLDSLKSRFIISRDNAKNILYLQMSSLKSEDTATYYCARGLTWDFDVWGTGTTVTVSS VL: DIVMTQSHKFMSPSVGDRVSITCKASQDVDTAVAWYQQKPGQSPKLLIYLASTRHTGVPDRFTGSGSGTDFTLTISNVQSEDLADYFCQQYSRFPLTFGAGTKLELK | 0.0207 | – | – | 0.951 | – | – | – | – | – | – | – | – | – |
| Mu_02D09 (antibody, V domains shown) VH: EVQLVESGGGLVKPGGSLTLSCAASGFTFSDYGMHWLRQAPEKGLEWVAYISSGSRAVFFADTVKGRFTISRDNAKNTLFLQMTSLRSDDTAMYYCARDRYDGRGFAYWGQGTLVTVSA VL: DIVLTQSPATLSVTPGDSVSLSCRASQSISNNLHWYQQTSHESPRLLITYASQSISGIPSRFSGSGSGTDFTLSINSVETEDFGMYFCQQSNSWPLTFGAGTKLELK | 8.96 | – | – | – | – | – | – | – | – | – | – | – | – |
| mouse: canine 09E09 chimera (antibody, V domains shown) VH: DVKLVESGEGLVKPGGSLKLSCAASGFTFSSYAMSWVRQTPEKRLEWVAYISSGGDYIYYADTVKGRFTISRDNARNTLYLQMSSLKSEDTAMYYCTRDPITGTFAYWGQGTLVTVSA VL: DLQMTQTTSSLSASLGDRVTISCRASQDINNYLNWYQQKPDGTVKLLIYYTSTLHSGVPSRFSGSGSGTDYSLTISNLEQEDIATYFCQQGNTLPWTFGGGTKLEIKR | 2.37 | 0.000697 | 294000 | 5.29 | 0.00104 | 196000 | 1.61 | 1.24 | 0.000945 | 759000 | 3.83 | 0.0021 | 572000 |
| Mu_09E09 (antibody, V domains shown) VH: DVKLVESGEGLVKPGGSLKLSCAASGFTFSSYAMSWVRQTPEKRLEWVAYISSGGDYIYYADTVKGRFTISRDNARNTLYLQMSSLKSEDTAMYYCTRDPITGTFAYWGQGTLVTVSA VL: DLQMTQTTSSLSASLGDRVTISCRASQDINNYLNWYQQKPDGTVKLLIYYTSTLHSGVPSRFSGSGSGTDYSLTISNLEQEDIATYFCQQGNTLPWTFGGGTKLEIK | 3.75 | – | – | 7.87 | – | – | – | – | – | – | – | – | – |
| Mu_10F07_VL (SEQ ID NO: 41)_W96A (antibody, V domains shown) VH: DVKLVESGEGLVKPGGSLKLSCAASGFTFSSYAMSWVRQTPEKRLEWVTYISSGGDYFYYADTVKGRFTISRDNARNTLYLQMSSLKSEDTAMYYCTRDPITGTFAYWGQGTLVTVSA VL: DIQMTQTTSSLSASLGDRVTISCRASQDITNYLNWYQQKPDGTVKLLIYYTSTLHSGVPSRFSGSGSGTDFSLTISNLEQEDIATYFCQQGHMLPATFGGGTKLEIKR | – | – | – | – | – | – | 0.134 | 7.03 | 0.00158 | 225000 | 40 | 8.63 | 2.16e+08 |
| Mu_10F07_VL (SEQ ID NO: 41)_T53A (antibody, V domains shown) VH: DVKLVESGEGLVKPGGSLKLSCAASGFTFSSYAMSWVRQTPEKRLEWVTYISSGGDYFYYADTVKGRFTISRDNARNTLYLQMSSLKSEDTAMYYCTRDPITGTFAYWGQGTLVTVSA VL: DIQMTQTTSSLSASLGDRVTISCRASQDITNYLNWYQQKPDGTVKLLIYYTSALHSGVPSRFSGSGSGTDFSLTISNLEQEDIATYFCQQGHMLPWTFGGGTKLEIKR | – | – | – | – | – | – | 0.217 | 1.83 | 0.000468 | 255000 | 3.94 | 0.000256 | 65000 |
| Mu_10F07_VH (SEQ ID NO: 39)_D99A (antibody, V domains shown) VH: DVKLVESGEGLVKPGGSLKLSCAASGFTFSSYAMSWVRQTPEKRLEWVTYISSGGDYFYYADTVKGRFTISRDNARNTLYLQMSSLKSEDTAMYYCTRAPITGTFAYWGQGTLVTVSA VL: DIQMTQTTSSLSASLGDRVTISCRASQDITNYLNWYQQKPDGTVKLLIYYTSTLHSGVPSRFSGSGSGTDFSLTISNLEQEDIATYFCQQGHMLPWTFGGGTKLEIKR | – | – | – | – | – | – | 0.545 | 3.18 | 0.000704 | 221000 | 11.2 | 0.000576 | 51600 |
